Measured values from patent US20100048468A1 (Amgen, published 2010).
Read-outs that look alike come from different tables or passages of the source. Non-standard residues stand in square brackets, D forms with d. Primed or numbered codes have the meaning given here. No end group written: not given here. Aib′ = alpha aminobutyric acid (source's wording)

T1: mouse GLP-1 receptor (mouse, UniProt O35659 22-463)
T1 sequence (looked up): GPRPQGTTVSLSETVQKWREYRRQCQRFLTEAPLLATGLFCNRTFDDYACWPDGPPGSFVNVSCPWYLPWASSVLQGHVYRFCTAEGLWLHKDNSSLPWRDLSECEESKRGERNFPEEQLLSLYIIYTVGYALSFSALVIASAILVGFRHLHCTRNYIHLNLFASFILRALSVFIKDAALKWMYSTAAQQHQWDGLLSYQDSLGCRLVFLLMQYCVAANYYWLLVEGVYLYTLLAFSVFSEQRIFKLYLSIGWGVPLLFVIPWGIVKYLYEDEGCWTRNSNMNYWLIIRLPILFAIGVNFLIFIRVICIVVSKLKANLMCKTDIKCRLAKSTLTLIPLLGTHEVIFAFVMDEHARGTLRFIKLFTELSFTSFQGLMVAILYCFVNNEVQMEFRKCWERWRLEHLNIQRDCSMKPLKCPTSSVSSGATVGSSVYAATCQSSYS


Legend:
human GLP-1 receptor [1] = biological target: T2, human GLP-1 receptor (human, UniProt P43220 24-463); assay: cell-based or functional assay
mouse GLP-1 receptor [2] = biological target: T1, mouse GLP-1 receptor; assay: cell-based or functional assay
human GLP-1 receptor [3] = biological target: T2, human GLP-1 receptor; assay: 125I-GLP-1 displacement, membranes of CHOK1 cells expressing human GLP-1 receptor
Method: (§1) Membrane Preparation. […] Cells were sedimented at 1500 rpm for 10 minutes. The resulting pellets were homogenized in 15 mls of ice cold sucrose buffer (25 mM Tris-HCl, 0.32 M Sucrose, 0.25 g/L, sodium azide, pH 7.4) with a motorized, glass fitted, Teflon homogenizer. The homogenate was centrifuged at 48,000×g at 4° C. for 10 minutes, resuspended in 25 ml assay buffer (50 mM Tris-HCl, 5 mM MgCl₂, 10 mg/ml protease-free BSA, 0.1 mg/ml STI, and 0.1 mg/ml Pefabloc, pH 7.4) with a Tissue-Tearor (Biospec Products), then centrifuged again at 48,000×g for 10 minutes. The pellets were homogenized for a third time in 15 ml assay buffer using the Tissue-Tearor and again centrifuged at 48,000×g for 10 minutes. The resulting pellet was resuspended in assay buffer at a wet weight concentration of 4 mg/ml.
Ligand Binding Assay. Binding assays were performed in 96-well U-bottom plates. […] The reaction was terminated by rapid filtration through Unfilter-96 GF/C glass fiber filter plates (FilterMate 196 Packard Harvester, PerkinElmer, Shelton, Conn.) pre-soaked in 0.5% polyethylenimine, followed by three washes with 300 μl of cold 50 mM Tris-HCl, pH 7.4. Bound radioactivity was determined using a TopCount microplate scintillation and luminescence counter (Packard Instrument Company, PerkinElmer, Shelton, Conn.). Nonlinear regression analyses of resulting concentration curves were performed using GraphPad Prism (GraphPad Software, Inc., San Diego, Calif.). […]

human GLP-1 receptor [4] = biological target: T2, human GLP-1 receptor; assay: cell-based or functional assay; remark: listed apart in the source
mouse GLP-1 receptor [5] = biological target: T1, mouse GLP-1 receptor; assay: cell-based or functional assay; remark: listed apart in the source
human GLP-1 receptor [6] = biological target: T2, human GLP-1 receptor; assay: 125I-GLP-1 displacement, membranes of CHOK1 cells expressing human GLP-1 receptor; remark: listed apart in the source
Method: as §1
Ligand Binding Assay. Binding assays were performed in 96-well U-bottom plates. […] The reaction was terminated by rapid filtration through Unfilter-96 GF/C glass fiber filter plates (FilterMate 196 Packard Harvester, PerkinElmer, Shelton, Conn.) pre-soaked in 0.5% polyethylenimine, followed by three washes with 300 μl of cold 50 mM Tris-HCl, pH 7.4. Bound radioactivity was determined using a TopCount microplate scintillation and luminescence counter (Packard Instrument Company, PerkinElmer, Shelton, Conn.). Nonlinear regression analyses of resulting concentration curves were performed using GraphPad Prism (GraphPad Software, Inc., San Diego, Calif.).

Row | Binder | EC50 human (human GLP-1 receptor [1]) [nM] | EC50 mouse (mouse GLP-1 receptor [2]) [nM] | IC50 (human GLP-1 receptor [3]) [nM] | EC50 human (human GLP-1 receptor [4]) [nM] | EC50 mouse (mouse GLP-1 receptor [5]) [nM] | IC50 (human GLP-1 receptor [6]) [nM]
1 | HGEGTFTSDVSSYLE[Aib′]QAAKEFIAWLVKGRGC(mPEG‑maleimide 10 kDa)SG-NH2 [cgGLP-26 (SEQ ID NO: 22 + 10k PEG)] | 0.059 | 0.9 | 23 |  |  | 
2 | HGEGTFTSDVSSYLE[Aib′]QAAKEFIAWLVKGRGC(mPEG‑maleimide 20 kDa)SG (also called cgGLP-19) [mgGLP19 & cgGLP- (SEQ ID NO: 21 + 20k PEG)] | 0.00032 | 4 | 230 |  |  | 
3 | MHHHAEGTFTSDVSSYLEGQAAKEFIAWLVKGR (ends and bridges not checked, Not pegylated) [MHH-GLP1 (SEQ ID NO: 258)] |  |  |  | 1 | 5 | 350
4 | HGEGTFTSDVSSYLE[Aib′]QAAKEFIAWLVKGRG-NH2 [HGEGT FTSDV SSYLE [Aib]QAAK EFIAW LVKGR G-AMIDE (SEQ ID NO: 15)] | 0.027 | 0.12 | 3.5 |  |  | 
5 | MQHAEGTFTSDVSSYLEGQAAKEFIAWLVKGR (ends and bridges not checked, Not pegylated) [MQ-GLP1 (SEQ ID NO: 253)] |  |  |  | 0.5 | 3 | 64
6 | MKHAEGTFTSDVSSYLEGQAAKEFIAWLVKGR (not fully specified; ends and bridges not checked, Not pegylated) [MK-GLP1 (SEQ ID NO: 255)] |  |  |  | 4 | 12 | 760
7 | MLHAEGTFTSDVSSYLEGQAAKEFIAWLVKGR (ends and bridges not checked, Not pegylated) [ML-GLP1 (SEQ ID NO: 262)] |  |  |  | 0.7 | 6 | 160
8 | MMHAEGTFTSDVSSYLEGQAAKEFIAWLVKGR (not fully specified; ends and bridges not checked, Not pegylated) [MM-GLP1 (SEQ ID NO: 267)] |  |  |  | 0.5 | 3 | 100
9 | MFHAEGTFTSDVSSYLEGQAAKEFIAWLVKGR (ends and bridges not checked, Not pegylated) [MF-GLP1 (SEQ ID NO: 266)] |  |  |  | 1 | 6 | 180
10 | MHHAEGTFTSDVSSYLEGQAAKEFIAWLVKGR (ends and bridges not checked, Not pegylated) [MH-GLP1 (SEQ ID NO: 257)] |  |  |  | 2 | 11 | 350
11 | MRHAEGTFTSDVSSYLEGQAAKEFIAWLVKGR (ends and bridges not checked, Not pegylated) [MR-GLP1 (SEQ ID NO: 254)] |  |  |  | 8 | 41 | 590
12 | MDHAEGTFTSDVSSYLEGQAAKEFIAWLVKGR (Not pegylated) [MD-GLP1 (SEQ ID NO: 261)] |  |  |  | 0.3 | 2 | 82
13 | MWHAEGTFTSDVSSYLEGQAAKEFIAWLVKGR (ends and bridges not checked, Not pegylated) [MW-GLP1 (SEQ ID NO: 265)] |  |  |  | 0.8 | 5 | 79
14 | MYHAEGTFTSDVSSYLEGQAAKEFIAWLVKGR (ends and bridges not checked, Not pegylated) [MY-GLP1 (SEQ ID NO: 259)] |  |  |  | 0.4 | 1 | 57
